Our source for the Kd values is patent US20140113831A1 (published 2014).

This assay deals with T1, human PDGFRb (human, UniProt P09619 33-531).
T1 chain: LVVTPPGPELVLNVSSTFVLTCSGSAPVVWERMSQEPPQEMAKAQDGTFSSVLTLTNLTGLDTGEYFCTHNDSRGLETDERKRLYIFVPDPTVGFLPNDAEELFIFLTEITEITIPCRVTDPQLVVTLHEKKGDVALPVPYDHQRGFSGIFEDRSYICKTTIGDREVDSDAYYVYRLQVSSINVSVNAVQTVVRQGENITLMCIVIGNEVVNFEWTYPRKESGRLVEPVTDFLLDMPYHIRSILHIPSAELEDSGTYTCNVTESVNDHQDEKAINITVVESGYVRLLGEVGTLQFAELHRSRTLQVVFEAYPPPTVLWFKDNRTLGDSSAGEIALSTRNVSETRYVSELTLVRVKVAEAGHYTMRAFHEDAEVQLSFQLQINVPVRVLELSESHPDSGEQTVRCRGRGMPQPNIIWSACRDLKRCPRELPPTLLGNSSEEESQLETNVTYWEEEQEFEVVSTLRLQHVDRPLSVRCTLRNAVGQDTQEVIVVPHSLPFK
Description: solution binding affinity (35S Met labeled).

What is called Kd is the free concentration of one partner at which half of the binding sites on the other are occupied at equilibrium, for simple one-to-one binding.

B1: scFv XB2202-A4 (scFv, V domains shown)
VH: QVQLVQSGAEVKKPGSSVRVSCKASGGTFSRHAISWVRQAPGQGLEWIGGILPILKTPNYAQRFQGRVTINADESTSTVYMEMSSLRSEDTAVYYCATHGGDRSYWGQGTLVTVSS
VL: DVVMTQSPSSLSASVGDRVTITCQASQDISNWLNWYQQKPGKAPKLLIYEASNLETGVPSRFSGSGSGTDFTFTISSLQPEDIATYYCQQYNNVLRTFGQGTKVEIK
B1: the Kd worked out at 0.03 nM.
